# Results published in EP4748858A1 (Nanjing Probio Biotech Co., Ltd., dated 2026).
# Where a chain is given by its changes, count along the chain named.
# B1: VHH6 CAR (other)
# chain: DVQLQESGGGLVQAGGSLRLSCAVSGYPYSSYCMGWFRQAPGKEREGVAAIDSDGRTRYADSVKGRFTISQDNAKNTLYLQMNRMKPEDTAMYYCAARFGPMGCVDLSTLSFGHWGQGTQVTVSITGGGGSGGGGSGGGGSGGGGSDVQLQESGGGLVQAGGSLRLSCAVSGYPYSSYCMGWFRQAPGKEREGVAAIDSDGRTRYADSVKGRFTISQDNAKNTLYLQMNRMKPEDTAMYYCAARFGPMGCVDLSTLSFGHWGQGTQVTVSITAAADYKDDDDKIEVMYPPPYLDNEKSNGTIIHVKGKHLCPSPLFPGPSKPFWVLVVVGGVLACYSLLVTVAFIIFWVRSKRSRLLHSDYMNMTPRRPGPTRKHYQPYAPPRDFAAYRSRVKFSRSADAPAYQQGQNQLYNELNLGRREEYDVLDKRRGRDPEMGGKPRRKNPQEGLYNELQKDKMAEAYSEIGMKGERRRGKGHDGLYQGLSTATKDTYDALHMQALPPR
# B2: AHP19509-VHH1 CAR (other)
# chain: EVQLVESGGGLVQPGGSLRLSCAASGGTFNRYTMGWFRQAPGKEREFVSAISWSGGSTDYADSVKGRFTISRDNSKNTLYLQMNSLRAEDTAVYYCDTDRMPYRPVAAGILSWEANWGQGTLVTVSSGGGSGGGSGGGSGGGSEVQLVESGGGLVQPGGSLRLSCAASGGTFNRYTMGWFRQAPGKEREFVSAISWSGGSTDYADSVKGRFTISRDNSKNTLYLQMNSLRAEDTAVYYCDTDRMPYRPVAAGILSWEANWGQGTLVTVSSAAADYKDDDDKIEVMYPPPYLDNEKSNGTIIHVKGKHLCPSPLFPGPSKPFWVLVVVGGVLACYSLLVTVAFIIFWVRSKRSRLLHSDYMNMTPRRPGPTRKHYQPYAPPRDFAAYRSRVKFSRSADAPAYQQGQNQLYNELNLGRREEYDVLDKRRGRDPEMGGKPRRKNPQEGLYNELQKDKMAEAYSEIGMKGERRRGKGHDGLYQGLSTATKDTYDALHMQALPPR
# B3: AHP19485-VHH1 CAR (other)
# chain: EVQLVESGGGLVQPGGSLRLSCAASERIFSIHAMGWYRQAPGKQRELVSSITIGGSTHYADSVKGRFTISRDNSKNTLYLQMNSLRAEDTAVYYCNSMLLAGTVGGSWGQGTLVTVSSGGGSGGGSGGGSGGGSEVQLVESGGGLVQPGGSLRLSCAASERIFSIHAMGWYRQAPGKQRELVSSITIGGSTHYADSVKGRFTISRDNSKNTLYLQMNSLRAEDTAVYYCNSMLLAGTVGGSWGQGTLVTVSSAAADYKDDDDKIEVMYPPPYLDNEKSNGTIIHVKGKHLCPSPLFPGPSKPFWVLVVVGGVLACYSLLVTVAFIIFWVRSKRSRLLHSDYMNMTPRRPGPTRKHYQPYAPPRDFAAYRSRVKFSRSADAPAYQQGQNQLYNELNLGRREEYDVLDKRRGRDPEMGGKPRRKNPQEGLYNELQKDKMAEAYSEIGMKGERRRGKGHDGLYQGLSTATKDTYDALHMQALPPR
# B4: AHP19484-VHH3 CAR (other)
# chain: QVQLVESGGGLVKPGGSLRLSCAASGSSFHFAFMGWYRQAPGKQRELVADISPGNSTNYADPVKGRFTISRDNAKNSLYLQMNSLRAEDTAVYFCRDLRSWGAWGQGTLVTVSSGGGSGGGSGGGSGGGSQVQLVESGGGLVKPGGSLRLSCAASGSSFHFAFMGWYRQAPGKQRELVADISPGNSTNYADPVKGRFTISRDNAKNSLYLQMNSLRAEDTAVYFCRDLRSWGAWGQGTLVTVSSAAADYKDDDDKIEVMYPPPYLDNEKSNGTIIHVKGKHLCPSPLFPGPSKPFWVLVVVGGVLACYSLLVTVAFIIFWVRSKRSRLLHSDYMNMTPRRPGPTRKHYQPYAPPRDFAAYRSRVKFSRSADAPAYQQGQNQLYNELNLGRREEYDVLDKRRGRDPEMGGKPRRKNPQEGLYNELQKDKMAEAYSEIGMKGERRRGKGHDGLYQGLSTATKDTYDALHMQALPPR
# B5: AHP19481 (Fc fusion)
# chain: AVQLVDSGGGLVQPGGSLRLSCAASGFTFSGFAMSWYRQAPGKERELVATISRFGESSNYEDSVKGRFTISRDNAKDTGYLQMNSLKPEDTAVYYCNAEAPAGSLWYGNNYWGQGTQVTVSS
# notes: Alpaca VHH expressed as fusion to human IgG1 Fc; not shown: human IgG1 Fc of expression vector pcDNA3.4-Fc (HuIgG1)
# B6: AHP19490 (Fc fusion)
# chain: B5 chain with A1Q, D6E, A33D, E56G, A75V, G79V, N97Y, E99L, Y107H, N109D
# notes: as for B5
# B7: AHP19472 (Fc fusion)
# chain: B5 chain with R19G, A33D, E46M, S52T, E56G, K76R, G79V, V93M, N97H, Y107F
# notes: Alpaca VHH expressed as fusion to human IgG1 Fc in HEK293-6E; not shown: human IgG1 Fc of expression vector pcDNA3.4-Fc (HuIgG1)
# B8: AHP19495 (Fc fusion)
# chain: AVQLVESGGGLVQPGGSLRLSCAASGFTASRDVMSWYRQPPGKERELVASIFSAGSKETYAESVKGRFTISIDNVKNTVNLQMDNLKPEDTAVYYCHRWPGYWGQGTQVTVSS
# notes: as for B5
# B9: AHP19508 (Fc fusion)
# chain: AVQLVDSGGGLVQPGGSLRLSCAASGDFARLYEMAWYRQTPGQQREVVAQITVGGSTKYADSVKGRFTISRDSAKNTVYLQMNSLRPEDTAVYYCHAWPALWGQGTQVTVSS
# notes: as for B5
# B10: AHP19494 (Fc fusion)
# chain: QVKLEESGGGLVQAGGSLRLSCAAPGRTLSASIKAWFRQAPGKDREFAAAIRWSGDSTYYADSVKGRFTISRDNAKNTVDLQMNSLKPEDTAVYYCNAGGLLSNGYQPGSSWGQGTQVTVSS
# notes: as for B5
# B11: AHP19511 (Fc fusion)
# chain: AVQLVESGGGLVQPGGSLRLSCAASGFTFSNAVIGWYRQAPGKQRELVASITPGGRTTYPDSVKGRFIISRDNAKNTVYLEMNSLKLEDTAVYYCNDFRGLGGYWGQGTQVTVSS
# notes: as for B5
# B12: AHP19487 (Fc fusion)
# chain: DVQLVESGGGLVQPGGSLRLSCAFPGSAFSFYFMGWYRQAPGKQRELVGDITPGGTANYADSVKGRFTISRDSAKNTVYLQMNSLKPEDTAVYYCNADRRVTIRPDGYWGQGTQVTVSS
# notes: as for B5
# B13: AHP19483 (Fc fusion)
# chain: AVQLVDSGGGLVQAGGSLTLSCAASGRTFSRYTMGWFRQAPGKERELVASISWSGGSTDYADSVKDRFTISRDNTKNTVYLQMNGLKPEDTAVYYCNTDRMPYRPVVGGILSWEPYWGQGTQVTVTP
# notes: as for B5
# B14: AHP19484-VHH3 (Fc fusion)
# chain: QVQLVESGGGLVKPGGSLRLSCAASGSSFHFAFMGWYRQAPGKQRELVADISPGNSTNYADPVKGRFTISRDNAKNSLYLQMNSLRAEDTAVYFCRDLRSWGAWGQGTLVTVSS
# notes: Humanized VHH of AHP19484 expressed as fusion to human IgG1 Fc; not shown: human IgG1 Fc of expression vector pcDNA3.4-Fc (Human IgG1)
# B15: AHP19485-VHH1 (Fc fusion)
# chain: EVQLVESGGGLVQPGGSLRLSCAASERIFSIHAMGWYRQAPGKQRELVSSITIGGSTHYADSVKGRFTISRDNSKNTLYLQMNSLRAEDTAVYYCNSMLLAGTVGGSWGQGTLVTVSS
# notes: Humanized VHH of AHP19485 expressed as fusion to human IgG1 Fc; not shown: human IgG1 Fc of expression vector pcDNA3.4-Fc (Human IgG1)
# B16: AHP19509-VHH1 (Fc fusion)
# chain: EVQLVESGGGLVQPGGSLRLSCAASGGTFNRYTMGWFRQAPGKEREFVSAISWSGGSTDYADSVKGRFTISRDNSKNTLYLQMNSLRAEDTAVYYCDTDRMPYRPVAAGILSWEANWGQGTLVTVSS
# notes: Humanized VHH of AHP19509 expressed as fusion to human IgG1 Fc; not shown: human IgG1 Fc of expression vector pcDNA3.4-Fc (Human IgG1)
# Target: T1, human CD7 expressed on cells (human, UniProt P09564 26-240)
# T1 sequence (looked up): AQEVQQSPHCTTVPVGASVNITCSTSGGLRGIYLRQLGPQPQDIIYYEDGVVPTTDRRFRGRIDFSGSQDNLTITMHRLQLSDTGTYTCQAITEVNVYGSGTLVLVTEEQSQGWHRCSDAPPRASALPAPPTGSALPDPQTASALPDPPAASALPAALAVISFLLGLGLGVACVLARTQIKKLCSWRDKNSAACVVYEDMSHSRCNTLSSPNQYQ
# Test: cell-based or functional assay
Binder,"% Cytotoxicity of CAR-T cells against Jurkat/Luc, E/T = 1 : 1","% Cytotoxicity of CAR-T cells against Jurkat/Luc, E/T = 5 : 1","% Cytotoxicity of CAR-T cells against Jurkat/Luc, E/T = 20 : 1"
B1,43.4%,67.2%,93.6%
B2,62.4%,93%,99.6%
B3,29.7%,86%,99.4%
B4,60.5%,94.5%,100%

# Target: T2, mouse CD7 (ACROBiosystems, CD7-M52H3) (mouse, UniProt P50283 24-150)
# T2 construct: Bought recombinant protein; also called Mouse CD7 protein
# T2 sequence (looked up): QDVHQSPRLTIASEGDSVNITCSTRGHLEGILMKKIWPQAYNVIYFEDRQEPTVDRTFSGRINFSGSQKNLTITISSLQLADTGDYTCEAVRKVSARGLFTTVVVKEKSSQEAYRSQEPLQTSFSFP
# Test: indirect ELISA, plate coated with 1 µg/ml mouse CD7
row,Binder,binding result
1,B5,no binding (tested: 8 µg/ml (about 100 nM))
2,B6,no binding (tested: 8 µg/ml (about 100 nM))
3,B7,no binding (tested: 8 µg/ml (about 100 nM))
4,B8,no binding (tested: 8 µg/ml (about 100 nM))
5,B9,no binding (tested: 8 µg/ml (about 100 nM))
6,B10,no binding (tested: 8 µg/ml (about 100 nM))
7,B11,no binding (tested: 8 µg/ml (about 100 nM))
8,B12,no binding (tested: 8 µg/ml (about 100 nM))
9,B13,no binding (tested: 8 µg/ml (about 100 nM))

# Target: T3, recombinant protein of the human CD7 extracellular domain, CD7-His (human, UniProt P09564 26-180)
# T3 construct: range 25-645; also called human CD7-His protein; recombinant human CD7; not shown: His protein tag
# T3 sequence (looked up): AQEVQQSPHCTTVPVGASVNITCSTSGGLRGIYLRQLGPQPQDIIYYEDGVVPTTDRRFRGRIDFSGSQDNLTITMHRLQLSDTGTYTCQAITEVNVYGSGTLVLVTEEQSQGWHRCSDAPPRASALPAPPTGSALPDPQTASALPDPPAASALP
# Test: indirect ELISA, plate coated with 1 µg/ml human CD7, anti-human IgG Fc-HRP
row,Binder,EC50
1,B5,0.238 nM
2,B6,0.268 nM
3,B7,0.179 nM
4,B8,0.158 nM
5,B9,0.2 nM
6,B10,1.47 nM
7,B11,0.166 nM
8,B12,0.173 nM
9,B13,0.231 nM

# Target: T3, recombinant protein of the human CD7 …
# Test: SPR Biacore T200, antibody captured via Fc, human CD7 as analyte
Binder,Kd,koff,kon
B14,0.118 nM,5.19e-05 s⁻¹,440000 M⁻¹ s⁻¹
B15,0.131 nM,3.18e-05 s⁻¹,243000 M⁻¹ s⁻¹
B16,0.1 nM,3.04e-05 s⁻¹,304000 M⁻¹ s⁻¹

# Target: T1, human CD7 expressed on cells
# Test: cell-based or functional assay
# Remark: another data set of the same source
Binder,"% Cytotoxicity of CAR-T cells against CCRF-CEM/Luc, E/T = 1 : 1","% Cytotoxicity of CAR-T cells against CCRF-CEM/Luc, E/T = 5 : 1","% Cytotoxicity of CAR-T cells against CCRF-CEM/Luc, E/T = 20 : 1"
B1,74.5%,51.2%,71.1%
B2,74.8%,60.2%,84.6%
B3,57.4%,61.2%,78.2%
B4,69.7%,64.9%,94.1%
